From PMC2064651

Target: ADP/ATP carrier (S. cerevisiae (endogenous in strain GA74)) (UniProt P18239)
Experiment: native gel or EMSA

In the case of “ADP/ATP carrier (from UniProt P18239 1-318) (natural protein)”, the stoichiometry N is reported as 2.
